B1: F26R N27D V29D A30G A32D S33N T37A L40P: Gaussia luciferase mutant (protein)
chain: MGVKVLFALICIAVAEAKPTENNEDRDIDGVDNNFAATDPDADRGKLPGKKLPLEVLKEMEANARKAGCTRGCLICLSHIKCTPKMKKFIPGRCHTYEGDKESAQGGIGEAIVDIPEIPGFKDLEPMEQFIAQVDLCVDCTTGCLKGLANVQCSDLLKKWLPQRCATFASKIQGQVDKIKGAGGD
modifications: SIGNAL (1)..(17)
notes: Gaussia luciferase mutant
B2: F26R N27D V29E A30G V31I A32D S33N A36N T37A L40R: Gaussia luciferase mutant (protein)
chain: MGVKVLFALICIAVAEAKPTENNEDRDIEGIDNNFNATDRDADRGKLPGKKLPLEVLKEMEANARKAGCTRGCLICLSHIKCTPKMKKFIPGRCHTYEGDKESAQGGIGEAIVDIPEIPGFKDLEPMEQFIAQVDLCVDCTTGCLKGLANVQCSDLLKKWLPQRCATFASKIQGQVDKIKGAGGD
modifications: SIGNAL (1)..(17)
notes: Gaussia luciferase mutant
B3: F26R N27Y V29E A30G A32D S33R A36G T37M L40P: Gaussia luciferase mutant (protein)
chain: MGVKVLFALICIAVAEAKPTENNEDRYIEGVDRNFGMTDPDADRGKLPGKKLPLEVLKEMEANARKAGCTRGCLICLSHIKCTPKMKKFIPGRCHTYEGDKESAQGGIGEAIVDIPEIPGFKDLEPMEQFIAQVDLCVDCTTGCLKGLANVQCSDLLKKWLPQRCATFASKIQGQVDKIKGAGGD
modifications: SIGNAL (1)..(17)
notes: Gaussia luciferase mutant
B4: A17V H79K P84A E102D S103T E110P L124M: Gaussia luciferase mutant (protein)
chain: MGVKVLFALICIAVAEVKPTENNEDFNIVAVASNFATTDLDADRGKLPGKKLPLEVLKEMEANARKAGCTRGCLICLSKIKCTAKMKKFIPGRCHTYEGDKDTAQGGIGPAIVDIPEIPGFKDMEPMEQFIAQVDLCVDCTTGCLKGLANVQCSDLLKKWLPQRCATFASKIQGQVDKIKGAGGD
modifications: SIGNAL (1)..(17)
notes: Gaussia luciferase mutant
B5: F26R V29E A30G V31L A36D T37E L40S K159: Gaussia luciferase mutant (protein)
chain: MGVKVLFALICIAVAEAKPTENNEDRNIEGLASNFDETDSDADRGKLPGKKLPLEVLKEMEANARKAGCTRGCLICLSHIKCTPKMKKFIPGRCHTYEGDKESAQGGIGEAIVDIPEIPGFKDLEPMEQFIAQVDLCVDCTTGCLKGLANVQCSDLLKKWLPQRCATFASKIQGQVDKIKGAGGD
B6: A30G V31I A32V S33G A36N T37D L40R: Gaussia luciferase mutant (protein)
chain: MGVKVLFALICIAVAEAKPTENNEDFNIVGIVGNFNDTDRDADRGKLPGKKLPLEVLKEMEANARKAGCTRGCLICLSHIKCTPKMKKFIPGRCHTYEGDKESAQGGIGEAIVDIPEIPGFKDLEPMEQFIAQVDLCVDCTTGCLKGLANVQCSDLLKKWLPQRCATFASKIQGQVDKIKGAGGD
modifications: SIGNAL (1)..(17)
notes: Gaussia luciferase mutant
B7: F26S N27Y V29C A32G S33E A36Q T37G L40T: Gaussia luciferase mutant (protein)
chain: MGVKVLFALICIAVAEAKPTENNEDSYICAVGENFQGTDTDADRGKLPGKKLPLEVLKEMEANARKAGCTRGCLICLSHIKCTPKMKKFIPGRCHTYEGDKESAQGGIGEAIVDIPEIPGFKDLEPMEQFIAQVDLCVDCTTGCLKGLANVQCSDLLKKWLPQRCATFASKIQGQVDKIKGAGGD
modifications: SIGNAL (1)..(17)
notes: Gaussia luciferase mutant
B8: F26I N27D V29S A30G V31L A32V S33D A36V T37E L40G: Gaussia luciferase mutant (protein)
chain: MGVKVLFALICIAVAEAKPTENNEDIDISGLVDNFVETDGDADRGKLPGKKLPLEVLKEMEANARKAGCTRGCLICLSHIKCTPKMKKFIPGRCHTYEGDKESAQGGIGEAIVDIPEIPGFKDLEPMEQFIAQVDLCVDCTTGCLKGLANVQCSDLLKKWLPQRCATFASKIQGQVDKIKGAGGD
modifications: SIGNAL (1)..(17)
notes: Gaussia luciferase mutant
B9: F26I N27H V29G A32G S33D A36G T37L L40I: Gaussia luciferase mutant (protein)
chain: MGVKVLFALICIAVAEAKPTENNEDIHIGAVGDNFGLTDIDADRGKLPGKKLPLEVLKEMEANARKAGCTRGCLICLSHIKCTPKMKKFIPGRCHTYEGDKESAQGGIGEAIVDIPEIPGFKDLEPMEQFIAQVDLCVDCTTGCLKGLANVQCSDLLKKWLPQRCATFASKIQGQVDKIKGAGGD
modifications: SIGNAL (1)..(17)
notes: Gaussia luciferase mutant
B10: F26L N27D A30D V31L A32V S33N A36N T37A L40S: Gaussia luciferase mutant (protein)
chain: MGVKVLFALICIAVAEAKPTENNEDLDIVDLVNNFNATDSDADRGKLPGKKLPLEVLKEMEANARKAGCTRGCLICLSHIKCTPKMKKFIPGRCHTYEGDKESAQGGIGEAIVDIPEIPGFKDLEPMEQFIAQVDLCVDCTTGCLKGLANVQCSDLLKKWLPQRCATFASKIQGQVDKIKGAGGD
modifications: SIGNAL (1)..(17)
notes: Gaussia luciferase mutant
B11: F26L N27D V29A V31L A32D S33N T37E L40T: Gaussia luciferase mutant (protein)
chain: MGVKVLFALICIAVAEAKPTENNEDLDIAALDNNFAETDTDADRGKLPGKKLPLEVLKEMEANARKAGCTRGCLICLSHIKCTPKMKKFIPGRCHTYEGDKESAQGGIGEAIVDIPEIPGFKDLEPMEQFIAQVDLCVDCTTGCLKGLANVQCSDLLKKWLPQRCATFASKIQGQVDKIKGAGGD
modifications: SIGNAL (1)..(17)
notes: Gaussia luciferase mutant
B12: F26L N27D V29D A30G S33N A36I T37D L40R: Gaussia luciferase mutant (protein)
chain: MGVKVLFALICIAVAEAKPTENNEDLDIDGVANNFIDTDRDADRGKLPGKKLPLEVLKEMEANARKAGCTRGCLICLSHIKCTPKMKKFIPGRCHTYEGDKESAQGGIGEAIVDIPEIPGFKDLEPMEQFIAQVDLCVDCTTGCLKGLANVQCSDLLKKWLPQRCATFASKIQGQVDKIKGAGGD
modifications: SIGNAL (1)..(17)
notes: Gaussia luciferase mutant
B13: F26L N27D V29P A30G V31I A32G S33A A36T T37C L40E I112T: Gaussia luciferase mutant (protein)
chain: MGVKVLFALICIAVAEAKPTENNEDLDIPGIGANFTCTDEDADRGKLPGKKLPLEVLKEMEANARKAGCTRGCLICLSHIKCTPKMKKFIPGRCHTYEGDKESAQGGIGEATVDIPEIPGFKDLEPMEQFIAQVDLCVDCTTGCLKGLANVQCSDLLKKWLPQRCATFASKIQGQVDKIKGAGGD
modifications: SIGNAL (1)..(17)
notes: Gaussia luciferase mutant

Key:
Format in all cases: biochemical
Set-up in all cases: key to Activity of mutant relative to wild-type Gaussia luciferase without the signal peptide: ratio of mutant luminescence intensity to wild-type Gaussia luciferase
[1] = Luminescence activity assay of purified Gaussia luciferase mutants on fluoro-coelenterazine; conditions: Substrate f-CTZ (Table 16)
Description: In this Example, the protein concentration was determined with a BCA quantitative kit (Thermo Scientific™ Pierce™ BCA Protein Assay Kit) accurately. The purified luciferase obtained in Example 5 was diluted with diluent (50 mM Tris-HCl, pH 8.0, 100 mM NaCl, 0.1% (v/v) Tween-20) to 1 μg/mL. The diluted luciferase, taken for 10 μL, was moved into a black 96-well plate, then added with 90 μL of the substrates coelenterazine, fluoro-coelenterazine or coelenterazine derivative ZS2 (purchased from Biolab) which was diluted into 100 μM with the same diluent, and the luminescence intensity of the plate was read with a self-luminescence module of a microplate reader. The mutation site of the mutant, the measured luminescence intensity, the ratio of luminescence intensities of the advantageous mutants to the wild-type Gaussia luciferase without the signal peptide having the sequence shown in SEQ ID NO: 3 are shown in Table 15. The results of catalytic activity assay of the advantageous mutants relative to the wild-type Gaussia luciferase without the signal peptide having the sequence shown in SEQ ID NO: 3 on substrate coelenterazine are shown in FIG. 6. […] The results of catalytic activity assay of the advantageous mutants relative to the wild-type Gaussia luciferase without the signal peptide having the sequence shown in SEQ ID NO: 3 on substrate fluoro-coelenterazine are shown in FIG. 7.
The new mutant library constructed in Example 7 was screened and tested for substrate specificity. Expression and purification schemes were the same as that in Example 5, and the activity assay scheme was the same as that in Example 6. The respective catalytic activities of combinatorial mutants on coelenterazine, fluoro-coelenterazine or coelenterazine derivative ZS2, and coelenterazine derivative ZS26 (purchased from BIOLAB) were assayed, and comparisons among the substrate specificities of the combinatorial mutants were based on the ratios of catalytic activities on two corresponding substrates.

[2] = Luminescence activity assay of purified Gaussia luciferase mutants on coelenterazine derivative ZS2; conditions: Substrate ZS2 (Table 16)
Method in brief: (§1)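 Readout: luminescence intensity, as ratio to signal-peptide-free wild-type enzyme. Enzyme 1 μg/mL, substrate 100 μM stock, 10 μL + 90 μL; buffer 50 mM Tris-HCl pH 8.0, 100 mM NaCl, 0.1% Tween-20.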

[3] = Luminescence activity assay of purified Gaussia luciferase mutants on coelenterazine; conditions: Substrate CTZ (Table 16)
Method in brief: as §1

Molecule	Activity of mutant relative to wild-type Gaussia luciferase without the signal peptide [1]	Activity of mutant relative to wild-type Gaussia luciferase without the signal peptide [2]	Activity of mutant relative to wild-type Gaussia luciferase without the signal peptide [3]
B1	0.049	0.031	0.031
B2	0.067	0.044	0.053
B3	0.172	0.147	0.152
B4	0.763	0.082	0.198
B5	0.009	0.001	0.000
B6	0.615	0.116	0.138
B7	0.143	0.126	0.119
B8		2.094	0.788
B9		0.479	0.055
B10		1.802	0.799
B11		0.191	0.000
B12		1.989	0.726
B13		0.395	0.001
